Experimental data taken from US20180134769A1 (NATIONAL RESEARCH COUNCIL OF CANADA, published 2018).
Numbering of substitutions follows the chain as printed.

B1: A20.1p (other)
VHH: QVQLVESGGGLAQAGGSLRLSCAASGRTFSMDPMAWFRQPPGKEREFVAAGSSTGRTTYYADSVKGRFTISRDNAKNTVYLQMNSLKPEDTAVYYCAAAPYGANWYRDEYAYWGQGTQVTVSS
B2: A5.1p (other)
VHH: QVKLEESGGGLVQAGGSLRLSCAASGRTFSMYRMGWFRQAPGKEREFVGVITRNGSSTYYADSVKGRFTISRDNAKNTVYLQMNSLKPEDTALYYCAATSGSSYLDAAHVYDYWGQGTQVTVSS
B3: A26.8m (VHH)
VHH: QVKLEESGGGLVQAGGSLRLSCAASERTFSRYPVAWFRQAPGAEREFVCVISSTGTSTYYADSVKGRFTCSRDNAKVTVYLQMNNLKREDTAVYFCAVNSQRTRLQDPNEYDYWGQGTQVTVSS
notes: also called mutant A26.8; disulfide mutant of A26.8
B4: A20.1m (VHH)
VHH: B1 VHH with A49C, I70C
notes: also called mutant A20.1; disulfide mutant of A20.1
B5: A4.2m (VHH)
VHH: QVKLEESGGGLVQAGGSLRLSCAASGRTFNTLSMGWFRQAPGKEREFVCAVSRSGGSTYYADSVKGRFTCSRDNAKNTVYLQMNSLKPEDTAVYYCAAAATKSNTTAYRLSFDYWGQGTQVTVSS
notes: also called mutant A4.2; disulfide mutant of A4.2
B6: A5.1m (VHH)
VHH: B2 VHH with G49C, I70C
notes: also called mutant A5.1; disulfide mutant of A5.1
B7: B5.2 (VHH)
VHH: QVQLVESGGGLVQPGGSLRLSCAASGNIFSINTMGWYRQAPGKQLELVAAITSGGTTSYTDSVEGRFTISRDNAKNAVYLQMNSLKAEDTAVYYCNTVKVVGGRLDNPDYWGQGTQVTVSS
notes: llama VHH monomer; also called anti-TcdB VHH B5.2
B8: A20.1 (VHH)
VHH: B1 VHH
notes: also called anti-TcdA VHH A20.1
B9: A4.2 (VHH)
VHH: B5 VHH with C49A, C70I
notes: also called anti-TcdA VHH A4.2
B10: A24.1 (VHH)
VHH: QVQLVESGGGLVQAGGSLRLSCAASIRSFSNRNMGWFRQPPGKEREFVAGISWGGGSTRYADSVKGRFTISRDNAKKTVYLQMNSLKPEDTAVYYCAAEFGHNIATSSDEYDYWGQGTQVTVSS
notes: also called anti-TcdA VHH A24.1
B11: A5.1 (VHH)
VHH: B2 VHH
notes: also called anti-TcdA VHH A5.1
B12: A19.2 (VHH)
VHH: QVKLEESGGGLVQPGGSLRLSCAASGRTLSSYIVAWFRQAPGKEREFVAGISRRGGNSAYVESVKGRFTISRDNAKNTVYLQMNSLKPEDTAVYYCAADGSVAGWGRRSVSVSSYDYWGQGTQVTVSS
notes: also called anti-TcdA VHH A19.2
B13: A26.8 (VHH)
VHH: B3 VHH with C49A, C70I
notes: also called anti-TcdA VHH A26.8
B14: B13.6 (VHH)
VHH: QVKLEESGGGLVQAGGSLRLSCSASGRTFSSGVMGWFRQAPGKQRELVAAITTGGSTSYTDSVKGRFTISRDNAKNTVYLQMNSLKPEDTAVYYCNSVAVVGGVIKSPDYWGQGTQVTVSS
notes: llama VHH monomer; also called anti-TcdB VHH B13.6
B15: B15.5 (VHH)
VHH: QVQLVESGGDLVQAGGSLRLSCAASGSISRISTMGWYRQAPGKQRELVATISTGGTTNYAESVKGRFTVSRDNAKNTMYLQMNSLKPEDTAVYYCAAGWKVVRGSLEYEYSGQGTQVTVSS
notes: llama VHH monomer; also called anti-TcdB VHH B15.5

What follows are binders tested against T1, Clostridium difficile toxin A (TcdA) (Clostridium difficile strain 10463, UniProt P16154 1-2710) (assay: not given).

Binder | EC50 (read off the curve) [nM]
B1 | ~1
B2 | ~4

Target: T1, Clostridium difficile toxin A (TcdA)
Assay: not given
Remark: another data set of the same source

Binder | koff [s⁻¹]
B3 | 0.019
B4 | 0.0059
B5 | 0.016
B6 | 0.013

These binders were tested against T1, Clostridium difficile toxin A (TcdA) (assay: ELISA, antigen coated).

Binder | binding result
B7 | binds

These binders were tested against T2, Clostridium difficile toxin B (TcdB) (Clostridium difficile strain 10463, UniProt P18177 1-2366) (assay: ELISA, antigen coated).
T2 construct: range 1-2366

Binder | binding result
B8 | no binding
B9 | no binding
B10 | no binding
B11 | no binding
B12 | no binding

Each binder was assayed against T3, TcdA-RBD-f1 (Clostridium difficile, UniProt P16154 2304-2710) (assay: ELISA, antigen coated).
T3 construct: range 2304-2710

Binder | binding result
B13 | binds

The binders below were run against T4, TcdB-RBD-f1 (Clostridium difficile, UniProt P18177 2286-2366) (assay: ELISA, antigen coated).
T4 construct: range 2286-2366

Binder | binding result
B13 | no binding
B8 | no binding
B9 | no binding
B10 | no binding
B11 | no binding
B12 | no binding

Each binder was assayed against T1, Clostridium difficile toxin A (TcdA) (assay: SPR, TcdA immobilized; same value as in Table 1).

Binder | Kd [nM] | koff [s⁻¹] | kon [M⁻¹ s⁻¹]
B8 | 2 | 0.0016 | 820000
B9 | 24 | 0.016 | 670000
B10 | 260 | 0.016 | 60000
B11 | 3 | 0.005 | 1.6e+06
B12 | 290 | 0.0039 | 14000

Each binder was assayed against T1, Clostridium difficile toxin A (TcdA) (assay: SPR (BIACORE 3000); 10,287 RUs of TcdA immobilized, VHH injected).

Binder | Kd [nM] | koff [s⁻¹] | kon [M⁻¹ s⁻¹]
B3 | 28 | 0.028 | 1e+06
B4 | 9.2 | 0.0059 | 640000
B5 | 20 | 0.019 | 930000
B6 | 17 | 0.016 | 950000

These binders were tested against T1, Clostridium difficile toxin A (TcdA) (assay: ELISA, TcdA coated at 5 ug/ml, rabbit anti-His6 IgG-HRP).

Binder | EC50 (read off the curve) [nM]
B8 | ~1
B11 | ~7

What follows are binders tested against T4, TcdB-RBD-f1 (assay: SPR (BIACORE 3000); VHH immobilized on CM5 chip, TcdB-RBD-f1 injected).

Binder | Kd [nM] | koff [s⁻¹] | kon [M⁻¹ s⁻¹]
B14 | 400 | 0.001 | 2500
B15 | 357 | 0.001 | 2800
B7 | 100 | 0.0002 | 2000

Each binder was assayed against T1, Clostridium difficile toxin A (TcdA) (assay: SPR (BIACORE 3000); TcdA immobilized on CM5 chip, monomeric VHH injected).

Binder | Kd [nM] | koff [s⁻¹] | kon [M⁻¹ s⁻¹]
B8 | 2 | 0.0016 | 820000
B9 | 24 | 0.016 | 
B10 | 260 | 0.016 | 60000
B11 | 3 | 0.005 | 1.6e+06
B12 | 290 | 0.0039 | 14000

The binders below were run against T1, Clostridium difficile toxin A (TcdA) (assay: ELISA, immobilized TcdA, serial dilution of VHH, rabbit anti-His6 IgG-HRP).

Binder | EC50 (read off the curve) [µg/mL]
B12 | ~0.04
